Assay results taken from patent US6429304.

B1: baculovirus-expressed S. purpuratus katanin p60 subunit with N-terminal His(6) tag (protein)
chain: HHHHHHMSVDEICENTKMGREYALLGNYETSLVYYQGVLQQIQKLLTSVHEPQRKHQWQTIRQELSQEYEHVKNITKTLNGFKSEPAAPEPAPNHRAAPFSHHQHAAKPAAAEPARDPDVWPPPTPVDHRPSPPYQRAARKDPPRRSEPSKPANRAPGNDRGGRGPSDRRGDARSGGGGRGGARGSDKDKNRGGKSDKDKKAPSGEEGDEKKFDPAGYDKDLVENLERDIVQRNPNVHWADIAGLTEAKRLLEEAVVLPLWMPDYFKGIRRPWKGVLMVGPPGTGKTMLAKAVATECGTTFFNVSSASLTSKYHGESEKLVRLLFEMARFYAPSTIFIDEIDSICSKRGTGSEHEASRRVKSELLIQMDGVSGPSAGEESSKMVMVLAATNFPWDIDEALRRRLEKRIYIPLPEIDGREQLLRINLKEVPLADDIDLKSIAEKMDGYSGADITNVCRDASMMAMRRRIQGLRPEEIRHIPKEELNQPSTPADFLLALQKVSKSVGKEDLVKYMAWMEEFGSV
B2: co-expressed recombinant p60/p80 katanin heterodimer (baculovirus, both subunits with N-terminal His(6) tag) (protein)
chain 1: B1 chain
chain 2: HHHHHHMATKRAWKLQELVAHSSNVNCLALGPMSGRVMVTGGEDKKVNLWAVGKQNCIISLSGHTSPVDSVKFNSSEELVVAGSQSGTMKIYDLEPAKIVRTLTGHRNSIRCMDFHPFGEFVASGSTDTNVKLWDVRRKGCIYTYKGHSDQVNMIKFSPDGKWLVTASEDTTIKLWDLTMGKLFQEFKNHTGGVTGIEFHPNEFLLASGSSDRTVQFWDLETFQLVSSTSPGASAVRSISFHPDGSYLFCSSQDMLHAFGWEPIRCFDTFSVGWGKVADTVIASTQLIGASFNATNVSVYVADLSRMSTTGIAQEPQSQPSKTPSGGAEEVPSKPLTASGRKNFVRERPHTTSSKQRQPDVKSEPERQSPTQDEGVKDDDATDIKDPDSYAKIFSPKTRVDHSPERNAQPFPAPLDVPGAQEPEPFKHPPKPAAAAAVAPVSRAPAPSASDWQPAQANPAPNRVPAATKPVPAQEVAPSRKPDPISTIIPSDRNKPANLDMDAFLPPAHAQQAPRVNAPASRKQSDSERIEGLRKGHDSMCQVLSSRHRNLDVVRAIWTAGDAKTSVESVVNMKDQAILVDILNIMLLKKSLWNLDMCVVVLPRLKELLSSKYENYVHTSCACLKLILKNFTSLFNQNIKCPPSGIDITREERYNKCSKCYSYLIATRGYVEEKQHVSGKLGSSFRELHLLLDQLE

Molecular target: microtubules prepared from bovine brain tubulin (taxol-stabilized)

Protein	ATPase activity (malachite green)	maximal basal and microtubule-stimulated ATPase rates relative to p60/p80	microtubule concentration at peak ATPase stimulation	microtubule severing (fluorescence microscopy assay)	rate of microtubule disassembly (DAPI fluorescence assay)	ATPase activity (malachite green), stimulation by microtubules	maximal microtubule-stimulated ATPase rate
B1	p60 alone displayed a microtubule-stimulated ATPase activity	only 2-fold lower than those of the p60/p80 heterodimer	peak at ˜2 µM tubulin	Both p60 and p60/p80 severed microtubules in this assay	p60 was half as active as p60/p80	–	–
B2	–	–	peak at ˜2 µM tubulin	Both p60 and p60/p80 severed microtubules in this assay	–	this activity was stimulated ˜10-fold by microtubules	maximal microtubule-stimulated rate of 3 ATP/katanin/sec
